Laboratory results taken from patent US20140057840A1, “ANTI-ANDROGENIC AGENT, SEBUM SECRETION BLOCKER, HAIR GROWTH STIMULANT, AND FOOD OR BEVERAGE” (LOTTE CO., LTD., priority 2009, published 2014).

Key:
hamster sebocytes = assay: Sebocyte culture test (sebum synthesis amount, Oil Red O staining); format: cell-based, golden hamster; conditions: medium with 1×10^−6M testosterone; for sebum synthesis amount suppressed to: about 2 weeks, FIG. 3
Experimental: 1. The test was carried out using a hamster sebocyte culture kit KB-1000 (manufactured by KURABO […] LTD.).
The sebocyte cell derived from the auricula of a normal golden hamster was inoculated in a 24-well plate in a density of 5.0×10^4 cells/well. During the test, the cell was cultured in medium containing testosterone in a concentration of 1×10^−6M.
2. The cell was cultured for several days until confluent, and the medium was exchanged with medium containing the test sample. The medium was exchanged with sample medium every other day and the culture was continued for about 2 weeks.
In this test, cow's lactoferrin was prepared to be used as the lactoferrin, and spironolactone was used as a control.
3. Then, using a sebum synthesis assay kit SE-3001 (manufactured by KURABO […], LTD.), a WST-8 solution was added to each well and incubated for 30 minutes at 37° C. The supernatant was assayed at a wavelength of 450 nm, and the number of viable cell was counted.
4. Further, the supernatant was stained with Oil Red O and observed under a microscope while extracted with 100% isopropanol and measured at a wavelength of 520 nm for the lipid synthesis amount.
The correction was made using the following formula, and the lipid synthesis amount per cell was compared.
Comparison of lipid synthesis amount per cell=absorbance B/absorbance A
Absorbance A: cell number measured value (450 nm)
Absorbance B: lipid synthesis amount measured value (520 nm)

[1] = tested on: testosterone 5α-reductase; assay: Testosterone 5α-reductase blocking test; format: biochemical; conditions: result in words; enzyme solution S-9; FIG. 1
Experimental: 1. 0.5 ml of 5 mM Tris-HCl buffer solution (pH 7.2) was added to 0.1 ml of 3.0 mM testosterone solution (dissolved in propylene glycol).
2. Further, 0.1 ml of 6.7 mM NADPH solution (dissolved in 5 mM Tris-HCl buffer solution (pH 7.2)) and 0.05 ml of a sample solution (dissolved in 50% ethanol) were added thereto, the mixture was preheated at 37° C. and 0.1 ml of an enzyme solution (S-9, Oriental Yeast Co., Ltd.) was added to incubate for 1 hour.
In this test, cow's lactoferrin was prepared to be used as the lactoferrin, and saw palmetto was used as a control.
3. Then, 3 ml of dichloromethane was added to terminate the reaction, 0.5 ml of an internal standard solution (0.1 mg/ml of p-hydroxybenzoic acid n-hexyl ester) was added thereto followed by shaking for 10 minutes, and the mixture was centrifuged at 3000 rpm for 10 minutes.
4. The dichloromethane layer was separated, collected and dried under reduced pressure. […] The residual testosterone was measured by HPLC from the obtained sample solution.
The measurement was carried out by eluting with methanol/water (65/35) and monitoring at 254 nm under the conditions of using a YMC A-302 (internal diameter 4.6×150 mm) column at a column temperature of 40° C. at a flow rate of 1 ml/min. The measurement was carried out using the internal standard substance method and the blocking rate (%) was determined using the following formula. […]

androgen receptor = molecular target: T1, androgen receptor (Mus musculus, UniProt P19091); assay: Androgen receptor binding blocking test (DHT-dependent proliferation of SC-3 cells, MTT assay); format: cell-based; conditions: SC-3 cell, 10^−8M DHT, FIG. 2
T1 construct: An androgen-dependent mouse breast cancer cell SC-3 cell; endogenous in cells; host or cells: SC-3 mouse breast cancer cells
T1 sequence (P19091 1-899): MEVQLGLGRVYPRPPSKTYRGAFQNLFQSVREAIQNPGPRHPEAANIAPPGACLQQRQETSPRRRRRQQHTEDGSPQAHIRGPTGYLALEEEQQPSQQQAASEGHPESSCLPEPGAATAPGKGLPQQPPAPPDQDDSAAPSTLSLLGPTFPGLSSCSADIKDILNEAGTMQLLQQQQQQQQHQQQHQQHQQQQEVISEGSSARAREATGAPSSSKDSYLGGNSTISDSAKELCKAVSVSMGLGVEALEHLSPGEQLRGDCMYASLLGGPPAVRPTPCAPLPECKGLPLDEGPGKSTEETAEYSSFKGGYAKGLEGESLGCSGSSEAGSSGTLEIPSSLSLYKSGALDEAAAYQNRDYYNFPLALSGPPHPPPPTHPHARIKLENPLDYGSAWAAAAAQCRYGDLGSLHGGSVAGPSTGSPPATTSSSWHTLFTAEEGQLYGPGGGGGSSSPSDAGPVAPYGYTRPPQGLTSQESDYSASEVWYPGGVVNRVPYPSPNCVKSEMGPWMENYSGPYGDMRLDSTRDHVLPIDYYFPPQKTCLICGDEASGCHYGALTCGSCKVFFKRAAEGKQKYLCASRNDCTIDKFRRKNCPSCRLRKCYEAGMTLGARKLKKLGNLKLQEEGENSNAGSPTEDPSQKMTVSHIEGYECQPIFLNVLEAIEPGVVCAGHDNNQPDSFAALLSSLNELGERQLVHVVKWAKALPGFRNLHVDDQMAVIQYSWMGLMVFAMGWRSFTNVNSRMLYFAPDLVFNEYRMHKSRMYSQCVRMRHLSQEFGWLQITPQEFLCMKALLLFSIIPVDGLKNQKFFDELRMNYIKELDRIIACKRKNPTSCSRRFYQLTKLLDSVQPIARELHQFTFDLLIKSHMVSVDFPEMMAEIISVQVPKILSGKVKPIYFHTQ
Experimental: 24 Hours later, the culture medium was exchanged with HMB medium (0.1% BSA-containing Ham F12+MEM medium) to which the test sample and 10^−8M DHT were added, and the cell was cultured for 48 hours.
Then, in accordance with MTT assay, the cell proliferation was evaluated by measuring the absorbance at 570 nm, which is the absorption maximum of blue formazan.
To correct the influence of adherent cells, the absorbance at 650 nm was also measured simultaneously, and the difference between both absorbances was used as the produced amount of blue formazan. At the same time with the above, to examine the effect of the sample alone on SC-3 cell, the same culture and measurement were carried out by adding the sample alone, without adding DHT, to the HMB medium. […] Based on the measurement results, the binding blocking rate representing the anti-androgenic activity was determined using the following formula. […]
A: The absorbance when DHT was added but the sample was not added
B: The absorbance when DHT was not added and the sample was not added
C: The absorbance when DHT was added and the sample was added
D: The absorbance when DHT was not added but the sample was added

B1: lactoferrin (protein, UniProt P24627 20-708, looked up)
Lactotransferrin: APRKNVRWCTISQPEWFKCRRWQWRMKKLGAPSITCVRRAFALECIRAIAEKKADAVTLDGGMVFEAGRDPYKLRPVAAEIYGTKESPQTHYYAVAVVKKGSNFQLDQLQGRKSCHTGLGRSAGWIIPMGILRPYLSWTESLEPLQGAVAKFFSASCVPCIDRQAYPNLCQLCKGEGENQCACSSREPYFGYSGAFKCLQDGAGDVAFVKETTVFENLPEKADRDQYELLCLNNSRAPVDAFKECHLAQVPSHAVVARSVDGKEDLIWKLLSKAQEKFGKNKSRSFQLFGSPPGQRDLLFKDSALGFLRIPSKVDSALYLGSRYLTTLKNLRETAEEVKARYTRVVWCAVGPEEQKKCQQWSQQSGQNVTCATASTTDDCIVLVLKGEADALNLDGGYIYTAGKCGLVPVLAENRKSSKHSSLDCVLRPTEGYLAVAVVKKANEGLTWNSLKDKKSCHTAVDRTAGWNIPMGLIVNQTGSCAFDEFFSQSCAPGADPKSRLCALCAGDDQGLDKCVPNSKEKYYGYTGAFRCLAEDVGDVAFVKNDTVWENTNGESTADWAKNLNREDFRLLCLDGTRKPVTEAQSCHLAVAPNHAVVSRSDRAAHVKQVLLHQQALFGKNGKNCPDKFCLFKSETKNLLFNDNTECLAKLGGRPTYEEYLGTEYVTAIANLKKCSTSPLLEACAFLTR
notes: cow's lactoferrin; protein present in secretory fluids such as milk, tears, saliva, bile of mammals
- sebum synthesis amount suppressed to (hamster sebocytes; 10 ppm): 60%
- sebum synthesis amount suppressed to (hamster sebocytes; 20 ppm): 60%
- sebum synthesis amount, concentration dependence (hamster sebocytes; result in words, microscopic observation and absorbance measurement): suppressed the sebum synthesis amount in a concentration-dependent manner
- testosterone 5α-reductase blocking activity [1]: no testosterone 5α-reductase blocking activity
- binding blocking activity (binding blocking rate) (androgen receptor; concentration of 60 ppm, 48 hours): about 85%
- binding blocking activity, concentration dependence (androgen receptor; result in words): concentration-dependent binding blocking activity
